# Measurements as given in the supplement of paper PMC10567573.
# B1: MLH1 (parent)
# chain: YAHQMVRTDSREQKLDAFLQPLSK
# Variants of: B1
# Assay: protein stability index of a GFP-peptide fusion (GPS, HEK-293T) (PSI 1-6); higher = more stable
# Conditions: c terminus: a fixed tail appended
# 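Note: lentivirally expressed fusions sorted by FACS into six bins by GFP to DsRed ratio, PSI derived from sequencing read proportions per bin multiplied by bin number.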
row,Variant,protein stability index
1,YAHQMVRTDSREQKLDAFLQYLSK [P21Y],1.71
2,YAHSMVRTDSREQKLDAFLQPLSK [Q4S],2.42
3,YAHAMVRTDSREQKLDAFLQPLSK [Q4A],2.1
4,YAHGMVRTDSREQKLDAFLQPLSK [Q4G],2
5,YAHLMVRTDSREQKLDAFLQPLSK [Q4L],2.37
6,YAHQMVRTDIREQKLDAFLQPLSK [S10I],3
7,YAHQMVRTDNREQKLDAFLQPLSK [S10N],2.43
8,YAHQMVRTDGREQKLDAFLQPLSK [S10G],2.71
9,YAHQMVRTDAREQKLDAFLQPLSK [S10A],2.97
10,YAHQMVRTDTREQKLDAFLQPLSK [S10T],2.39
11,YAHQMVRTDMREQKLDAFLQPLSK [S10M],2.53
12,YAHQMVRTDQREQKLDAFLQPLSK [S10Q],2.78
13,YAHQMVRTDSRFQKLDAFLQPLSK [E12F],1.74
14,YAHQMVRTDSRNQKLDAFLQPLSK [E12N],2.37
15,YAHQMVRTDSRSQKLDAFLQPLSK [E12S],2.32
16,YAHQMVRTDSRHQKLDAFLQPLSK [E12H],2.34
17,WAHQMVRTDSREQKLDAFLQPLSK [Y1W],2.66
18,RAHQMVRTDSREQKLDAFLQPLSK [Y1R],3.12
19,NAHQMVRTDSREQKLDAFLQPLSK [Y1N],2.95
20,TAHQMVRTDSREQKLDAFLQPLSK [Y1T],3.87
21,LAHQMVRTDSREQKLDAFLQPLSK [Y1L],3.16
22,CAHQMVRTDSREQKLDAFLQPLSK [Y1C],1.59
23,DAHQMVRTDSREQKLDAFLQPLSK [Y1D],4.12
24,YAHQMVRTDSREQKLDAFLQPLSL [K24L],1.85

row,Variant,protein stability index
1,YAHQMVRTDSREQKLDAFLQPLSI [K24I],1.95
2,YAHQMVRTDSREQKLDAFLQPLSF [K24F],1.78
3,YAHQMVRTDSREQKLDAFLQPLSG [K24G],2.48
4,YAHQMVRTDSREQKHDAFLQPLSK [L15H],2.57
5,YAHQMVRTDSREQKWDAFLQPLSK [L15W],2.37
6,YAHQMVRTDSREQKLDAFLQPGSK [L22G],3.03
7,YAHQMVRTDSREQKLDAFLQPDSK [L22D],3.38
8,YAHQMVRTDSREQKLDAFLQPYSK [L22Y],2.03
9,YAHQMVRTDSREQKLDAFLQPESK [L22E],3.02
10,YAHQMVRTDSREQKLDAFLQPCSK [L22C],2.59
11,YAHQMVRTDSREQKLDAFLQPTSK [L22T],3.2
12,YAHQMVRTDSREQKLDAFLQPFSK [L22F],2.07
13,YAHQMVRTDSREQKLDAFLQPMSK [L22M],2.43
14,YAHQMVRTDSREQKLDAFLQPISK [L22I],3.13
15,YAHQMVRTDSREQKLDALLQPLSK [F18L],2.4
16,YAHQMVRTDSREQKLDADLQPLSK [F18D],3.79
17,YAHQMVRTDSREQKLDAVLQPLSK [F18V],3.15
18,YAHQMVRTDSREQKLDAYLQPLSK [F18Y],2.27
19,YAYQMVRTDSREQKLDAFLQPLSK [H3Y],2
20,YANQMVRTDSREQKLDAFLQPLSK [H3N],3.13
21,YACQMVRTDSREQKLDAFLQPLSK [H3C],2.01
22,YALQMVRTDSREQKLDAFLQPLSK [H3L],2.19
23,YAKQMVRTDSREQKLDAFLQPLSK [H3K],2.75
24,YADQMVRTDSREQKLDAFLQPLSK [H3D],3.05

row,Variant,protein stability index
1,YAHQMVETDSREQKLDAFLQPLSK [R7E],3.17
2,YAHQMVVTDSREQKLDAFLQPLSK [R7V],2.12
3,YAHQMVGTDSREQKLDAFLQPLSK [R7G],1.96
4,YAHQMVKTDSREQKLDAFLQPLSK [R7K],2.74
5,YAHQMVRTDSREQKLDAFDQPLSK [L19D],3.02
6,YAHQMVRTDSREQKLDAFTQPLSK [L19T],3.02
7,YAHQMVRTDSREQKLDAFVQPLSK [L19V],2.84
8,YAHQMVRTDSREQKLDAFEQPLSK [L19E],3.38
9,YAHQMVRTDSREQKLDAFIQPLSK [L19I],2.21
10,YAHQEVRTDSREQKLDAFLQPLSK [M5E],3.31
11,YAHQHVRTDSREQKLDAFLQPLSK [M5H],2.53
12,YAHQSVRTDSREQKLDAFLQPLSK [M5S],3.02
13,YAHQMVRTDSREQKLDAFLQPLWK [S23W],2.27
14,YAHQMVRTDSREQKLDAFLQPLFK [S23F],2.4
15,YAHQMVRTDSREQKLDAFLQPLEK [S23E],2.86
16,YAHQMVRIDSREQKLDAFLQPLSK [T8I],2.49
17,YAHQMVRHDSREQKLDAFLQPLSK [T8H],2.04
18,YAHQMVRSDSREQKLDAFLQPLSK [T8S],2.71
19,YAHQMVRWDSREQKLDAFLQPLSK [T8W],1.83
20,YCHQMVRTDSREQKLDAFLQPLSK [A2C],2.09
21,YNHQMVRTDSREQKLDAFLQPLSK [A2N],3.54
22,YGHQMVRTDSREQKLDAFLQPLSK [A2G],3.19
23,YAHQMVRTDSREFKLDAFLQPLSK [Q13F],1.72
24,YAHQMVRTDSRENKLDAFLQPLSK [Q13N],2.48

row,Variant,protein stability index
1,YAHQMVRTDSQEQKLDAFLQPLSK [R11Q],2.84
2,YAHQMVRTDSFEQKLDAFLQPLSK [R11F],2.51
3,YAHQMVRTDSCEQKLDAFLQPLSK [R11C],2.59
4,YAHQMVRTDSLEQKLDAFLQPLSK [R11L],1.95
5,YAHQMVRTDSTEQKLDAFLQPLSK [R11T],3.34
6,YAHQMVRTDSPEQKLDAFLQPLSK [R11P],2.46
7,YAHQMFRTDSREQKLDAFLQPLSK [V6F],2.19
8,YAHQMKRTDSREQKLDAFLQPLSK [V6K],2.53
9,YAHQMQRTDSREQKLDAFLQPLSK [V6Q],2.71
10,YAHQMVRTDSREQNLDAFLQPLSK [K14N],2.48
11,YAHQMVRTDSREQLLDAFLQPLSK [K14L],1.54
12,YAHQMVRTMSREQKLDAFLQPLSK [D9M],2.49
13,YAHQMVRTNSREQKLDAFLQPLSK [D9N],2.53
14,YAHQMVRTLSREQKLDAFLQPLSK [D9L],2.15
15,YAHQMVRTQSREQKLDAFLQPLSK [D9Q],2.7
16,YAHQMVRTSSREQKLDAFLQPLSK [D9S],2.54
17,YAHQMVRTWSREQKLDAFLQPLSK [D9W],1.8
18,YAHQMVRTCSREQKLDAFLQPLSK [D9C],2.46
19,YAHQMVRTDSREQKLDPFLQPLSK [A17P],2.66
20,YAHQMVRTDSREQKLDQFLQPLSK [A17Q],2.06
21,YAHQMVRTDSREQKLDMFLQPLSK [A17M],2.45
22,YAHQMVRTDSREQKLDEFLQPLSK [A17E],2.98
